Test results as given in patent publication US20250289873A1 (published 2025).
Where two headings read alike, the source gives them in different places.

Columns and labels:
hCFHR4 = assay: SPR kinetics
[1] = target: T1, FHR-4 (coated on plate, C3 convertase assembly assay) (UniProt Q92496 20-331); assay: C3 convertase assembly assay
T1 chain: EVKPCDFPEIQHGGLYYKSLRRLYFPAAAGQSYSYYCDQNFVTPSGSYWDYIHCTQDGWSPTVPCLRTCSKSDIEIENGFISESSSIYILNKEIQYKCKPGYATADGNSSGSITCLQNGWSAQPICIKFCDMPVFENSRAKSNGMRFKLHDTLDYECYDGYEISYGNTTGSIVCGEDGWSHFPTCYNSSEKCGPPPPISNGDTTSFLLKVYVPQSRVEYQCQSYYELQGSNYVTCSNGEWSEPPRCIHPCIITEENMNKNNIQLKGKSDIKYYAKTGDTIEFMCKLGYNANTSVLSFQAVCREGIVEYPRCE

[2] = target: T1, FHR-4 (coated on plate, C3 convertase …); assay: C3 convertase assembly assay
hCFHR4b = target: T2, hCFHR4b; assay: SPR kinetics
T2 chain: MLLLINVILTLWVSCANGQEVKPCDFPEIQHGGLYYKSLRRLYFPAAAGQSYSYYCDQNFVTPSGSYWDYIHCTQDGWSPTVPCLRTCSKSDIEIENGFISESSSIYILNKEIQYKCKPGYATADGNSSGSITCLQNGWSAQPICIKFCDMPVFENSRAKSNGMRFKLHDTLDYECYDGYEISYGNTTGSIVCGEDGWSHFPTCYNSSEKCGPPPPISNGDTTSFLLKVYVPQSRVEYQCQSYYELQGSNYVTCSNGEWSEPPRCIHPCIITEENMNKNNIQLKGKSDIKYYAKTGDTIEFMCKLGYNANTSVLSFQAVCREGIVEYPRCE

B1: ATX-P-587 (antibody, V domains shown)
VH: QVQLQQSGPGLVKPSQTLSLTCAISGDSVSSNSAAWNWIRQSPSRGLEWLGKTYYRSKWYNYYALSVKSRITINPDTSKNQFSLHLNSVTPEDTAVYYCARDGDYYLPSPFDLWGHGTMVTVSS
VL: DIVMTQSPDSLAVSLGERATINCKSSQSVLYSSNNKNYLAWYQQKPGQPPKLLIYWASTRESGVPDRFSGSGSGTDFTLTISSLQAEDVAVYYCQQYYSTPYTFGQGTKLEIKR
Question: B1 was tested. Which Kd (hCFHR4) did it give?
Answer: The Kd was 4.26 nM.

B2: ATX-P-563 (antibody, V domains shown)
VH: QVQLQESGPGLMKPSETLSLTCTVSGGSISSHYWSWIRQPPGKGLEWIGYIFYSGNINYNPSLKSRVTISVDTSKNQFSLKLRSVTTADTAVYYCARDRGGSYSYHFDCWGQGTLVTVSS
VL: DIQMTQSPSSVSASVGDRVTITCRASQSFAGWLAWYQQKPGKAPKLLIYAASTLQSGVPSRFSGSGSGTDFTLTISSLQPEDFATYYCQQANSFPLTFGGGTKVEIKR
Question: With B2 as the binder, how does the Kd (hCFHR4) read?
Answer: Its Kd is 1.05 nM.

B3: ATX-P-582 (antibody, V domains shown)
VH: QVQLQESGPGLVKPSGTLSLTCAVSGGSISISKWWSWVRQPPGKGLEWIGEIYHTGSTNYHPSLKSRVTISVDKSKNQFYLKLNSVTAADTAVYYCARDELRLGELSPSLDIWGQGTMVTVSS
VL: DIQMTQSPSSLSASVGDRVTITCRASQNINNYLNWFRQKPGKAPKLLIFAASSLQSGVPSRFSGSESGTDFTLTISSLQPEDFATYYCQQSYSTPLTFGGGTKVEIKR
Question: For B3, which Kd (hCFHR4) is on record?
Answer: Its Kd is 10 nM.

B4: ATX-P-564 (antibody, V domains shown)
VH: EVQLVESGGGLVKPGGSLRLSCAASGFTFSSYTMNWVRQAPGKGLEWVSSISSSSSYTYYADSVRGRFTISRDNAKNSLYLQMSSLRAEDTAVYYCARSASIAAGMDVWGKGTTVTVSS
VL: DIVMTQSPLSLPVTPGEPASISCRSSQSLLHSTGYNFLDWYLQKPGLSPQLLIYLASNRASGVPDRFSGSGSGTDFTLKISRVEAEDVGVYYCMQALQTPYTFGQGTKLEIKR
Question: B4 was tested. Which Kd (hCFHR4) did it give?
Answer: Its Kd is 3.56 nM.

Question: And the IC50 [1]?
Answer: The IC50 was 3.94 nM.

B5: ATX-P-596 (antibody, V domains shown)
VH: EVQLVESGGGLVQPGRSLRLSCAASGFSFDDYAMHWVRQVPGKGLEWVSGISWTGGSVGYADPVKGRFTISRDNAKNSLYLQMNSLRPEDTALYYCAKDMGDGYSRNWPFDYWGQGTLVTVSS
VL: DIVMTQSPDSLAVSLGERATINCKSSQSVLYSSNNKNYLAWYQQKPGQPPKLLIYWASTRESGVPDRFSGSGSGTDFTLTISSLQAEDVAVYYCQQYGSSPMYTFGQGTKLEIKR
Question: B5 was tested. Which Kd (hCFHR4) did it give?
Answer: Its Kd is 0.225 nM.

B6: ATX-P-595 (antibody, V domains shown)
VH: QVQLQQSGPGLVKPSQTLSLTCAISGDSVSSNSAAWNWIRQSPSRGLEWLGRTYYRSKWFNDYALSVKSRITINPDTSKNQFSLHLNSVTPEDTAVYYCAREPGIVAPGPFDYWGQGTLVTVSS
VL: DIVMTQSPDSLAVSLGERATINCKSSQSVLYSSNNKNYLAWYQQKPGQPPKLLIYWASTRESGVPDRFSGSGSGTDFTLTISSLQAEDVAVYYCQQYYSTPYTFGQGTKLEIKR
Question: With B6 as the binder, how does the IC50 [2] read?
Answer: The IC50 was 5.9 nM.

Question: And the Kd (hCFHR4b)?
Answer: The Kd was 16.9 nM.

Question: What about the Kd (hCFHR4) of the same binder?
Answer: The Kd was 16.9 nM.

Question: And the IC50 [1]?
Answer: The IC50 was 5.94 nM.

B7: ATX-P-592 (antibody, V domains shown)
VH: QVQLQQSGPGLVKPSQTLSLTCAISGDSVSSNSAAWNWIRQSPSRGLEWLGRTYYRSKWYSDYPLSVKSRITINPDTSKNQFSLQLNSVTPEDTAVYYCARDSGIVETTPFDYWGQGTLVTVSS
VL: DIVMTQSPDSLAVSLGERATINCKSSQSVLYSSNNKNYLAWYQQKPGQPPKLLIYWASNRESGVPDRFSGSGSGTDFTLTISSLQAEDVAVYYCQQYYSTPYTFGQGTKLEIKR
Question: What does the source list for B7?
Answer: IC50 [2]: 4.2 nM; Kd (hCFHR4b): 0.973 nM; Kd (hCFHR4): 0.973 nM; IC50 [1]: 4.28 nM

B8: ATX-P-594 (antibody, V domains shown)
VH: QVQLQQSGPGLVKPSQTLSLTCAISGDSVSSNSASWNWIRQSPSRGLEWLGTTYYRSKWFNVYAVSVKSRITINPDTSKNQFSLHLNSVTPEDTAIYFCTRDRGDLLHWYFDLWGRGTLVTVSS
VL: EIVLTQSPGTLSLSPGERATLSCRASQSVSSSYLAWYQQKPGQSPRLLIYGASSRATGIPDRFSGSGSGTDFTLTISRLEPEDFAVYYCQQYGRSVTFGGGTKLEIKR
Question: Which results are given for B8?
Answer: IC50 [2]: 4 nM; Kd (hCFHR4b): 0.326 nM; Kd (hCFHR4): 0.326 nM; IC50 [1]: 4.09 nM

B9: ATX-P-569 (antibody, V domains shown)
VH: EVQLVESGGGLAQFGRSLRLSCAASGFTFDDYAMHWLRQAPGMGLEWVSGISWNSGSIGYADSVKGRFTIARDNAKNSVHLQMNSLRAEDTALYYCAKDIGNGYTKGDVFDIWGQGTMVTVSS
VL: DIQMTQSPSTLSASVGDSVTITCRASQNIITWLAWYQQKPGKAPNLLIYKASSLESGVPSRFSGSGSGTEFTLTISSLQPDDFATYYCQQYSSYSYTFGQGTKLEIKR
Question: How did the IC50 [2] turn out when B9 was run?
Answer: Its IC50 is 12 nM.

Question: And the Kd (hCFHR4b)?
Answer: Its Kd is 1.44 nM.

Question: What about the Kd (hCFHR4) of the same binder?
Answer: Its Kd is 1.44 nM.

Question: And the IC50 [1]?
Answer: Its IC50 is 12.1 nM.

B10: ATX-P-591 (antibody, V domains shown)
VH: QVQLVQSGAEVKKPGASVKVSCKASGYTFTSYGISWVRQAPGQGLEWMGWISAYNGNTNYAQKLQGRVTMTTDTSTSTAYMELRSLRSDDTAIYYCTRDLRGTAFDYWGQGTPVTVSS
VL: DIQMTQSPSSLSASVGDRVTITCRASQSINTYLNWYQQKPGKAPKLLIYAASSLQSGVPSRFSGSGSGTDFTLTISSLQPEDFATYSCQHSFTTPFTFGPGTKLEIKR
Question: With B10 as the binder, how does the Kd (hCFHR4) read?
Answer: The Kd was 117 nM.

B11: ATX-P-603 (antibody, V domains shown)
VH: QVQLQESGPGLVKPSGTLSLTCAVSGGSISGSHWWSWFRQPPGKGLEWIGEIYHTGSTNKNPSLKSRVTISLDKSKNQFSLRLRSVTDADTAVYYCARDQYTGSPRDAFDIWGQGTMVTVSS
VL: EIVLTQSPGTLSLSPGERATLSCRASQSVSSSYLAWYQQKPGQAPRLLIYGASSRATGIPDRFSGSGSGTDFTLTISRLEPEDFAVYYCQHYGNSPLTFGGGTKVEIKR
Question: Which results are given for B11?
Answer: IC50 [2]: 7.6 nM; Kd (hCFHR4b): 0.917 nM; Kd (hCFHR4): 0.917 nM; IC50 [1]: 7.6 nM

B12: ATX-P-577 (antibody, V domains shown)
VH: QVQLQESGPGLVKPSGTLSLTCAVSGGSISSSNWWTWVRQPPGKGLEWIGETYHDGSTNYNPSLKSRVTISVDKSKNQFSLKLSSVTAADTAVYYCLEFYFDYWGQGTLVTVSS
VL: DIQMTQSPSSLSASVGDRVTITCRASQDIRNDLGWYQQKPGKVPKRLIYAASSLQSGVPSRFSGSGSGTEFTLTISSLQPEDFASYYCLQYNNYPFTLGPGTKVDIKR
Question: Which Kd (hCFHR4) does the source give for B12 here?
Answer: The Kd was 0.665 nM.

B13: ATX-P-566 (antibody, V domains shown)
VH: QVQLQQSGPGLVKPSQTLSLTCAISGDSVSSNSAAWNWIRQSPSRGLEWLGRTYYRSKWFNNYSVSVKSRIAINPDTSKNQFSLQLNSVTPEDTAVYYCARDLGELLDWYFDLWGRGTLVTVSA
VL: EIVLTQSPGTLSLSPGDRATLSCRASQSVRNSYVAWYQQKPGQAPRLLIYGASSRATGIPDRFSGSGSGTDFSLTIGRLEPEDFVVYYCQQYGNSPLTFGGGTKVEIKR
Question: Which Kd (hCFHR4) does the source give for B13 here?
Answer: Its Kd is 3.48 nM.

Question: What about the IC50 [1] of the same binder?
Answer: The IC50 was 3.27 nM.

B14: ATX-P-600 (antibody, V domains shown)
VH: EVQLVESGGGLVQPGRSLRLSCAASGFTFDDYAMHWVRQVPGRGLEWVSGISWSGGSIGYADSVKGRFTISRDNSKNSLYLQMNSLRAEDTALYYCTKDREDGYNYGGVFDYWGQGTLVTVSS
VL: EIVLTQSPGTLSLSPGERATLSCRASQNVRGSYLAWYQQKPGQAPRLLIYGASNRATDIPDRFSGSGSGTDFTLTISGLEPEDFVVYYCQQYGSSYTFGQGTKVEIKR
Question: B14 was tested. Which IC50 [2] did it give?
Answer: Its IC50 is 8.4 nM.

Question: What about the Kd (hCFHR4b) of the same binder?
Answer: The Kd was 7.39 nM.

Question: What about the Kd (hCFHR4) of the same binder?
Answer: Its Kd is 7.39 nM.

Question: And the IC50 [1]?
Answer: The IC50 was 8.44 nM.
